Assay results taken from patent publication US20130052176, “APTAMER FOR NGF AND USE THEREOF” (SHIONOGI & CO., LTD, published 2013).

Key:
NT-3 = biological target: T1, NT-3 (human, UniProt P20783 P20783:139-257); assay: SPR; binding to NT-3 not observed; TF-1 IC50 >1000 nM; conditions: tags: R&D Systems; chain copies: 2
T1 sequence: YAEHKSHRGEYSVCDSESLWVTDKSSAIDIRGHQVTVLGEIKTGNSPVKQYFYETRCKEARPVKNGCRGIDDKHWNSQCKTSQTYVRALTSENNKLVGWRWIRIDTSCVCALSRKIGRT

[1] = biological target: T2, NGF (nerve growth factor) (human, UniProt P01138 P01138:122-241); assay: cell_activity; neurite outgrowth, NGF 0.38 nM; SPR binding; blocks NGF-TrkA and NGF-p75; TF-1 IC50 0.07 nM; conditions: tags: amine-coupled to CM5 chip in SPR; soluble in cell assays; chain copies: 2
T2 sequence (P01138 122-241, one chain of several): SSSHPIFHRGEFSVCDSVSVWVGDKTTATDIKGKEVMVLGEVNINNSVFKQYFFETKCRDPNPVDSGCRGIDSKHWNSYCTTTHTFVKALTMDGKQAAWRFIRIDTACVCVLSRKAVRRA

[2] = biological target: T2, NGF (nerve growth factor); assay: cell_activity; neurite outgrowth, NGF 0.38 nM; TF-1 IC50 0.065 nM; conditions: tags: human NGF; chain copies: 2
Experimental: (§1) The neurite outgrowth inhibitory activity of the aptamer obtained in Example 1 was evaluated by using Neuroscreen-1 cell, which is a subclone of PC-12 cells.
(§2) The cells (2500 cells per well) were cultured for one day in an RPMI-1640 medium containing 2.5% horse serum and 1.25% fetal bovine serum in a 96 well flat-bottom plate coated with collagen type IV. […] Two days later, the cytoplasm and nuclei were stained using Cellomics Neurite Outgrowth Kit (manufactured by Thermo Scientific), and neurite length per cell was measured by Cellomics ArrayScan VTI (manufactured by Thermo Scientific). With the neurite length per cell obtained by the addition of NGF alone as inhibitory activity 0%, and that of the cell obtained by NGF free culture for 2 days as inhibitory activity 100%, the inhibitory activity of the aptamer was calculated from the neurite length per cell obtained by culturing with the addition of NGF and the aptamer in mixture. When the inhibitory activity was 0% or below, ‘0%’ is indicated.

[3] = biological target: T2, NGF (nerve growth factor); assay: cell_activity; neurite outgrowth, NGF 1.1 nM; SPR binding; TF-1 IC50 4.3 nM; conditions: tags: amine-coupled to CM5 chip in SPR; soluble in cell assays; chain copies: 2
[4] = biological target: T2, NGF (nerve growth factor); assay: cell_activity; neurite outgrowth, NGF 0.38 nM; TF-1 IC50 0.348 nM; conditions: tags: human NGF; chain copies: 2
Experimental: as §1, §2

[5] = biological target: T2, NGF (nerve growth factor); assay: cell_activity; neurite outgrowth, NGF 0.38 nM; SPR binding; TF-1 IC50 >0.3 nM; conditions: tags: amine-coupled to CM5 chip in SPR; soluble in cell assays; chain copies: 2
Experimental: as §1, §2

[6] = biological target: T2, NGF (nerve growth factor); assay: cell_activity; neurite outgrowth, NGF 0.38 nM; SPR binding; TF-1 IC50 0.052 nM; conditions: tags: amine-coupled to CM5 chip in SPR; soluble in cell assays; chain copies: 2
Experimental: as §1, §2

[7] = biological target: T2, NGF (nerve growth factor); assay: cell_activity; neurite outgrowth, NGF 0.38 nM; SPR binding; TF-1 IC50 0.078 nM; conditions: tags: amine-coupled to CM5 chip in SPR; soluble in cell assays; chain copies: 2
Experimental: as §1, §2

[8] = biological target: T2, NGF (nerve growth factor); assay: cell_activity; neurite outgrowth, NGF 1.1 nM; SPR binding; TF-1 IC50 >10 nM; conditions: tags: amine-coupled to CM5 chip in SPR; soluble in cell assays; chain copies: 2
Experimental: as §1, §2

[9] = biological target: T2, NGF (nerve growth factor); assay: cell_activity; neurite outgrowth, NGF 0.38 nM; SPR binding; TF-1 IC50 0.041 nM; conditions: tags: amine-coupled to CM5 chip in SPR; soluble in cell assays; chain copies: 2
Experimental: as §1, §2

[10] = biological target: T2, NGF (nerve growth factor); assay: cell_activity; neurite outgrowth, NGF 0.38 nM; TF-1 IC50 0.075 nM; conditions: tags: human NGF; chain copies: 2
Experimental: as §1, §2

[11] = biological target: T2, NGF (nerve growth factor); assay: cell_activity; neurite outgrowth, NGF 1.1 nM; SPR binding; TF-1 IC50 3.4 nM; conditions: tags: amine-coupled to CM5 chip in SPR; soluble in cell assays; chain copies: 2

B1: aptamer ID 26(2) (ssRNA)
RNA: GGGAGACUCGCCAGAGUUGAAAGAAACCCAAAUAAGUGUGCGCAC
modifications: 2'-F pyrimidines; 2'-OMe purines except 2'-OH at 3,5,19-22,24,26; 5' idT and 3' idT
NT-3
  binding result: no binding
[1]
  IC50: 0.06 nM

B2: aptamer ID 26(54) (mixed)
RNA: GGGAGACUCGCCAGAGUUGAAAGAAACCCAAAUAAGUGUGCGCAC
modifications: 5' and 3' idT; 2'-OMe purines except ribo g3,g19,a20,a26; 2'-F c28,u39,c41,c43; dC27,dC29; other pyrimidines 2'-OMe
[2]
  IC50: 0.097 nM

## GGGAGACUCGCCAGAGUUGAAAGAAACCCAAAUAAGUGUGCGCAC (ssRNA, 2'-F pyrimidines; 2'-OMe at 6,10,13-16; other purines 2'-OH) [aptamer ID 26(3)]
[3]
  IC50: < 1 nM

B3: aptamer ID 26(69) (ssRNA)
RNA: GGGAGACUCGCCAGAGUUGAAAGAAACCCAAAUAAGUGUGCGCAC
modifications: 5' PEG40TS4 via ssH linker; 3' idT; 2'-F all pyrimidines; 2'-OMe purines except ribo g3,g19,a20,a26
[4]
  IC50: 0.157 nM

B4: aptamer ID 26(37) (ssRNA)
RNA: GGGAGACUCGCCAGAGUUGAAAGAAACCCAAAUAAGUGUGCGCAC
modifications: 2'-F pyrimidines except 2'-OMe at 7; 2'-OMe purines except 2'-OH at 3,19,20,26; PS between 18 and 19; 5' idT and 3' idT
[5]
  IC50: 0.181 nM

B5: aptamer ID 26(12) (ssRNA)
RNA: GGGAGACUCGCCAGAGUUGAAAGAAACCCAAAUAAGUGUGCGCAC
modifications: 2'-F pyrimidines; 2'-OMe purines except 2'-OH at 3,19-22,24,26; 5' idT and 3' idT
[6]
  IC50: 0.036 nM

B6: aptamer ID 26(53) (mixed)
RNA: GGGAGACUCGCCAGAGUUGAAAGAAACCCAAAUAAGUGUGCGCAC
modifications: 2'-F pyrimidines except 2'-OMe at 7,8,9,11,12,17,18,33,37,45; 2'-OMe purines except 2'-OH at 3,19,20 and dA at 26; 5' idT and 3' idT
[7]
  IC50: 0.128 nM

## GGGAGACUCGCCAGAGUUGAAAGAAACCCAAAUAAGUGUGCGCAC (ssRNA, 2'-F pyrimidines; 2'-OMe at 22; other purines 2'-OH) [aptamer ID 26(8)]
[8]
  IC50: < 1 nM

B7: aptamer ID 26(71) (ssRNA)
RNA: GGGAGACUCGCCAGAGUUGAAAGAAACCCAAAUAAGUGUGCGCAC
modifications: 5' PEG80TS4 via C6 amino linker (Tb); 3' idT; 2'-OMe purines except ribo g3,g19,a20,a26; 2'-F c27,c28,c29,c41,c43; other pyrimidines 2'-OMe
[2]
  IC50: 0.279 nM

B8: aptamer ID 26(36) (ssRNA)
RNA: GGGAGACUCGCCAGAGUUGAAAGAAACCCAAAUAAGUGUGCGCAC
modifications: 2'-F pyrimidines except 2'-OMe at 7; 2'-OMe purines except 2'-OH at 3,19,20,26; PS between 3 and 4; 5' idT and 3' idT
[5]
  IC50: 0.211 nM

B9: aptamer ID 26(68) (ssRNA)
RNA: GGGAGACUCGCCAGAGUUGAAAGAAACCCAAAUAAGUGUGCGCAC
modifications: 5' PEG80TS2 via ssH linker; 3' idT; 2'-F all pyrimidines; 2'-OMe purines except ribo g3,g19,a20,a26
[4]
  IC50: 0.128 nM

B10: aptamer ID 26(9) (ssRNA)
RNA: GGGAGACUCGCCAGAGUUGAAAGAAACCCAAAUAAGUGUGCGCAC
modifications: 2'-F pyrimidines; 2'-OMe purines except 2'-OH at 3,5,19-22,26; 5' idT and 3' idT
[9]
  IC50: 0.052 nM

B11: aptamer ID 26(55) (mixed)
RNA: GGGAGACUCGCCAGAGUUGAAAGAAACCCAAAUAAGUGUGCGCAC
modifications: 5' and 3' idT; 2'-OMe purines except ribo g3,g19,a20,a26; 2'-F c27,c28,c41,c43; dC29,dT39; other pyrimidines 2'-OMe
[10]
  IC50: 0.087 nM

## GGGAGACUCGCCAGAGUUGAAAGAAACCCAAAUAAGUGUGCGCAC (ssRNA, 2'-F pyrimidines; 2'-OMe at 30-32,34,35; other purines 2'-OH) [aptamer ID 26(5)]
[11]
  IC50: < 1 nM

B12: aptamer ID 26(72) (mixed)
RNA: GGGAGACUCGCCAGAGUUGAAAGAAACCCAAAUAAGUGUGCGCAC
modifications: 5' PEG80TS4 via C6 amino linker (Tb); 3' idT; 2'-OMe purines except ribo g3,g19,a20,a26; 2'-F c28,c41,c43; dC27,dC29; other pyrimidines 2'-OMe
[10]
  IC50: 0.219 nM

B13: aptamer ID 26(61) (ssRNA)
RNA: GGGAGACUCGCCAGAGUUGAAAGAAACCCAAAUAAGUGUGCGCAC
modifications: 2'-F pyrimidines except 2'-OMe at 7,8,9,11,12,17,18,33,37,45 and LNA at c29; 2'-OMe purines except 2'-OH at 3,19,20,26; 5' idT and 3' idT
[7]
  IC50: 0.112 nM
